# Measured values from doi:10.1101/2020.04.23.057265 (bioRxiv, 2020).
# Target: SARS-CoV nsp7L8 fusion protein (SARS-CoV, UniProt P0C6X7)
# Experiment: SPR
binder,measurement,value
SARS-CoV nsp12 polymerase subunit (enzyme) SADASTFLNRVCGVSAARLTPCGTGTSTDVVYRAFDIYNEKVAGFAKFLKTNCCRFQEKDEEGNLLDSYFVVKRHTMSNYQHEETIYNLVKDCPAVAVHDFFKFRVDGDMVPHISRQRLTKYTMADLVYALRHFDEGNCDTLKEILVTYNCCDDDYFNKKDWYDFVENPDILRVYANLGERVRQSLLKTVQFCDAMRDAGIVGVLTLDNQDLNGNWYDFGDFVQVAPGCGVPIVDSYYSLLMPILTLTRALAAESHMDADLAKPLIKWDLLKYDFTEERLCLFDRYFKYWDQTYHPNCINCLDDRCILHCANFNVLFSTVFPPTSFGPLVRKIFVDGVPFVVSTGYHFRELGVVHNQDVNLHSSRLSFKELLVYAADPAMHAASGNLLLDKRTTCFSVAALTNNVAFQTVKPGNFNKDFYDFAVSKGFFKEGSSVELKHFFFAQDGNAAISDYDYYRYNLPTMCDIRQLLFVVEVVDKYFDCYDGGCINANQVIVNNLDKSAGFPFNKWGKARLYYDSMSYEDQDALFAYTKRNVIPTITQMNLKYAISAKNRARTVAGVSICSTMTNRQFHQKLLKSIAATRGATVVIGTSKFYGGWHNMLKTVYSDVETPHLMGWDYPKCDRAMPNMLRIMASLVLARKHNTCCNLSHRFYRLANECAQVLSEMVMCGGSLYVKPGGTSSGDATTAYANSVFNICQAVTANVNALLSTDGNKIADKYVRNLQHRLYECLYRNRDVDHEFVDEFYAYLRKHFSMMILSDDAVVCYNSNYAAQGLVASIKNFKAVLYYQNNVFMSEAKCWTETDLTKGPHEFCSQHTMLVKQGDDYVYLPYPDPSRILGAGCFVDDIVKTDGTLMIERFVSLAIDAYPLTKHPNQEYADVFHLYLQYIRKLHDELTGHMLDMYSVMLTNDNTSRYWEPEFYEAMYTPHTVLQ,binding result,binds
